Laboratory results taken from US20260242478A1 (published 2026).
Where no end group is shown, it is not given here.

B1: Phage-2468 (peptide, not shown: large carriers)
peptide: FEKWCIPAWMCEQV
modifications: cysteine pairing not given here; also: displayed as fusion to phage pIII
notes: Clonal phage of the Peptide-180 optimisation library, tested as crude supernatant
B2: Phage-2470 (peptide, not shown: large carriers)
peptide: VDKLCRPAWMCVAS
modifications: cysteine pairing not given here; also: displayed as fusion to phage pIII
notes: as for B1
B3: Phage-2471 (peptide, not shown: large carriers)
peptide: MEKWCIPDWMCLGN
modifications: cysteine pairing not given here; also: displayed as fusion to phage pIII
notes: as for B1
B4: Phage-2469 (peptide, not shown: large carriers)
peptide: VSKWCTPAWMCSAM
modifications: cysteine pairing not given here; also: displayed as fusion to phage pIII
notes: as for B1
B5: Phage-2466 (peptide, not shown: large carriers)
peptide: VVKWCTPSWMCTGF
modifications: cysteine pairing not given here; also: displayed as fusion to phage pIII
notes: as for B1
B6: Phage-2467 (peptide, not shown: large carriers)
peptide: GDKWCIPDWMCVQS
modifications: cysteine pairing not given here; also: displayed as fusion to phage pIII
notes: as for B1
B7: Phage-2472 (peptide, not shown: large carriers)
peptide: FDKWCIPPWMCVGP
modifications: cysteine pairing not given here; also: displayed on phage as fusion to pIII, pIII and linker sequence not given here
notes: as for B1
B8: Phage-2403 (peptide)
peptide: IEKWCIPQWMCGNP
modifications: cysteine pairing not given here; also: fused to phage pIII (clonal phage display)
B9: Phage-2417 (peptide)
peptide: FDPWCIPLWMCEGM
modifications: cysteine pairing not given here; also: displayed on bacteriophage by fusion to pIII
B10: Phage-2412 (peptide)
peptide: GEKWCIPDWMCAAA
modifications: cysteine pairing not given here; also: displayed on bacteriophage by fusion to pIII
B11: Phage-2415 (peptide)
peptide: LWKWCTPPWMCEVS
modifications: cysteine pairing not given here; also: displayed on bacteriophage by fusion to pIII
B12: Phage-2406 (peptide)
peptide: PDKWCIPQWMCSQM
modifications: cysteine pairing not given here; also: fused to phage pIII (clonal phage display)
B13: Phage-2413 (peptide)
peptide: LDMRCTPAWMCEGF
modifications: cysteine pairing not given here; also: displayed on bacteriophage by fusion to pIII
B14: Phage-2414 (peptide)
peptide: VEKWCTPPWMCRFD
modifications: cysteine pairing not given here; also: displayed on bacteriophage by fusion to pIII
B15: Phage-2416 (peptide)
peptide: SERWCIPQWMCTAP
modifications: cysteine pairing not given here; also: displayed on bacteriophage by fusion to pIII
B16: Phage-2418 (peptide)
peptide: FSKLCIPAWMCSEE
modifications: cysteine pairing not given here; also: displayed on bacteriophage by fusion to pIII

Each binder was assayed against T1, PSMA Fab (biotinylated (site not given)) (assay: phage ELISA on captured biotinylated PSMA Fab, wells pre-incubated with PSMA antigen (competitor: PSMA); anti-M13 HRP detection).
T1 construct: Biotinylated PSMA Fab captured on neutravidin plates in the phage ELISA; also called Anti-PSMA Fab; 006 PSMA Fab

Binder	Phage binding ELISA signal, Anti-PSMA Fab in presence of PSMA
B1	0.0596
B2	0.0775
B3	0.0809
B4	0.099
B5	0.0837
B6	0.0692
B7	0.0689

The binders below were run against T2, PSMA Fab (assay: phage ELISA, biotinylated PSMA Fab on neutravidin plate, bound phage detected with anti-M13-HRP).
T2 construct: also called Anti-PSMA Fab; 006 PSMA Fab
Description: (§1) Clonal phage were harvested as crude supernatants and screened via standard ELISAs. […] Prior to the addition of clonal phage. wells were incubated with blocking buffer and PSMA antigen or blocking buffer alone. Without washing or aspirating, clonal phage supernatants were then added to the wells and incubated for a short time. Wells were then washed followed by detection of bound phage using a horse radish conjugated anti-M13 antibody.

Binder	Phage binding ELISA signal, Anti-PSMA Fab
B8	1.36
HTTWCTPAWMCQGF [Phage-2404]	1.36

Each binder was assayed against T3, PSMA Fab (006 PSMA Fab) (assay: clonal phage ELISA on captured PSMA Fab, wells pre-incubated with PSMA antigen as competitor (column head not shown, assumed)).
T3 construct: In the phage ELISA the PSMA Fab was biotinylated and captured on neutravidin coated plates; also called Anti-PSMA Fab; anti-PSMA Fab

Binder	Phage binding ELISA signal, Anti-PSMA Fab with PSMA antigen
B9	0.0667
VAKWCIPSWMCETV (cysteine pairing not given here; also: displayed as fusion to phage pIII) [Phage-2419]	0.0735
EIKWCIPSWMCNTL (cysteine pairing not given here; also: displayed as fusion to phage pIII) [Phage-2420]	0.0772
YIKWCTPPWMCELM [Phage-2409]	0.15
B10	0.0769
B11	0.0864
B12	0.0822
B13	0.0768
B14	0.074
VDHWCTPEWMCVMM [Phage-2408]	0.0963
B15	0.0763
QAKWCIPQWMCESY [Phage-2411]	0.0648
B16	0.0956
MEKWCIPSWMCVGM [Phage-2405]	0.0682
MHHWCIPAWMCSTE [Phage-2410]	0.0812
TVKWCVPPWMCSVP [Phage-2407]	0.0764

These binders were tested against T2, PSMA Fab (assay: phage ELISA, biotinylated PSMA Fab on neutravidin plate pre-incubated with PSMA antigen as competitor, anti-M13-HRP).
Description: as §1

Binder	Phage binding ELISA signal, Anti-PSMA Fab with PSMA antigen
B8	0.0574
HTTWCTPAWMCQGF [Phage-2404]	0.0895

What follows are binders tested against T1, PSMA Fab (assay: phage ELISA: clonal phage supernatant on biotinylated PSMA Fab captured on neutravidin plate, blocking buffer alone; anti-M13 HRP detection;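 further: crude clonal phage supernatants added to wells preincubated with blocking buffer, incubated briefly, bound phage detected with a horseradish-conjugated anti-M13 antibody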).
Description: as §1

Binder	Phage binding ELISA signal, Anti-PSMA Fab
B1	1.24
B2	1.24
B3	1.24
B4	1.24
B5	1.24
B6	1.24
B7	1.24

What follows are binders tested against T3, PSMA Fab (006 PSMA Fab) (assay: clonal phage ELISA on biotinylated PSMA Fab captured on neutravidin plates, anti-M13-HRP detection;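 further: crude clonal phage supernatants added to wells preincubated with PSMA antigen or with blocking buffer only (no wash between), briefly incubated, then washed before detecting bound phage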).
Description: as §1

Binder	Phage binding ELISA signal, Anti-PSMA Fab
B9	1.34
VAKWCIPSWMCETV (cysteine pairing not given here; also: displayed as fusion to phage pIII) [Phage-2419]	1.33
EIKWCIPSWMCNTL (cysteine pairing not given here; also: displayed as fusion to phage pIII) [Phage-2420]	1.33
YIKWCTPPWMCELM [Phage-2409]	1.35
B10	1.34
B11	1.34
B12	1.36
B13	1.34
B14	1.34
VDHWCTPEWMCVMM [Phage-2408]	1.36
B15	1.34
QAKWCIPQWMCESY [Phage-2411]	1.35
B16	1.34
MEKWCIPSWMCVGM [Phage-2405]	1.36
MHHWCIPAWMCSTE [Phage-2410]	1.35
TVKWCVPPWMCSVP [Phage-2407]	1.36
